The results in this text go back to paper PMC7279355 (International Journal of Molecular Sciences, 2020).

Ends that are not written are not given here.

T1 sequence (Q9NZQ7 19-238): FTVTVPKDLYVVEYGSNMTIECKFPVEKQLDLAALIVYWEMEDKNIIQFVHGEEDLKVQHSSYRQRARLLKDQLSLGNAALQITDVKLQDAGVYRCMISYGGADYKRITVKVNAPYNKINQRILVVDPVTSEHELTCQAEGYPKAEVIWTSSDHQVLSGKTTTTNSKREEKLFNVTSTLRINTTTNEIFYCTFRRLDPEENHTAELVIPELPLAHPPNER

The assay has as its target T1, PD-L1, histidine (His)-tagged (UniProt Q9NZQ7 19-238).
T1 construct: PD-L1 (programmed cell death-ligand 1) of the AlphaLISA PD-1/PD-L1 kit; Held on anti-His-conjugated acceptor beads; also called His-tagged PD-L1; programmed cell death-ligand 1; source: bought: PerkinElmer AlphaLISA assay kit (AL356 HV/C/F)
Briefly: AlphaScreen or HTRF; AlphaLISA kit AL356 HV/C/F (PerkinElmer), competition: biotin-conjugated PD-1 on streptavidin-coated donor beads, His-tagged PD-L1 on anti-His acceptor beads; 2 uL each of inhibitor dilution, PD-L1 (25 nM), PD-1 (25 nM) and the two beads in 10 uL; 25 °C, 90 min; IC50 from sigmoidal fit. Particulars: both partners purified. Background: Alpha assays give light when donor and acceptor beads are brought close together.
Consider WRYNN (not fully specified; X (position 3) = biphenyl-conjugated bromotyrosine) [WRXNN], for which the IC50 was 157 µM. The molecule YRRRR (not fully specified; X (position 1) = biphenyl-conjugated bromotyrosine) [XRRRR] showed an IC50 of 436 µM. Tyr-Tyr-Cys (not fully specified (residue 2)) [YXC] showed an IC50 of 465 µM. With NYR (not fully specified; X (position 2) = biphenyl-conjugated bromotyrosine) [NXR] the figure was 982 µM; with ERYNK (not fully specified; X (position 3) = biphenyl-conjugated bromotyrosine) [ERXNK], 15.6 µM. For CYA (not fully specified; X (position 2) = biphenyl-conjugated bromotyrosine) [CXA], the half-inhibitory concentration (IC50) is 665 µM. In turn, GYG (not fully specified; X (position 2) = biphenyl-conjugated bromotyrosine) [GXG] yielded an IC50 of 676 µM. QYQ (not fully specified; X (position 2) = biphenyl-conjugated bromotyrosine) [QXQ] gave an IC50 of 1960 µM. In turn, YNL (not fully specified; X (position 1) = biphenyl-conjugated bromotyrosine) [XNL] registered an IC50 of 855 µM. YGGGGG (not fully specified; X (position 1) = biphenyl-conjugated bromotyrosine) [XGGGGG] gave an IC50 of 846 µM. SYR (not fully specified; X (position 2) = biphenyl-conjugated bromotyrosine) [SXR] registered an IC50 of 796 µM. The same measure for WRYNQ (not fully specified; X (position 3) = biphenyl-conjugated bromotyrosine) [WRXNQ]: 163 µM. The same measure for YNH (not fully specified; X (position 1) = biphenyl-conjugated bromotyrosine) [XNH]: 313 µM; for YHP (not fully specified; X (position 1) = biphenyl-conjugated bromotyrosine) [XHP]: 359 µM; for YCSE (not fully specified; X (position 1) = biphenyl-conjugated bromotyrosine) [XCSE]: 1560 µM. As to YGGGG (not fully specified; X (position 1) = biphenyl-conjugated bromotyrosine) [XGGGG], the half-inhibitory concentration (IC50) turned out to be 648 µM. Molecule YGG (not fully specified; X (position 1) = biphenyl-conjugated bromotyrosine) [XGG] registered an IC50 of 6500 µM.

For RYN (not fully specified; X (position 2) = biphenyl-conjugated bromotyrosine) [RXN], the half-maximal inhibitory concentration (IC50) was 405 µM. The same measure for CYR (not fully specified; X (position 2) = biphenyl-conjugated bromotyrosine) [CXR]: 550 µM; for WYG (not fully specified; X (position 2) = biphenyl-conjugated bromotyrosine) [WXG]: 405 µM; for YGGG (not fully specified; X (position 1) = biphenyl-conjugated bromotyrosine) [XGGG]: 6770 µM.

As usually defined, the IC50 is the concentration at which inhibition is half-maximal. The low end stands for higher potency, the high end for lower potency.
